The source of these data is the supplement of paper PMC7877785.

± gives the uncertainty stated by the source.

The data set is described as follows: self-splicing fitness, log relative to wild type (ln ratio); higher = more splicing; Tetrahymena group I intron in knt gene, E. coli kanamycin selection, DiMSum; sequences stand for … in CUCUCU…GGAGGGAAAAGUUAUCAGGCAUGCACCUGGUAGCUAGUCUUUAAACCAAUAGAUUGCAUCGGUUUAAAAGGCAAGACCGUCAAAUUGCGGGAAAGGGGUCAACAGCCGUUCAGUACCAAGUCUCAGGGGAAACUUUGAGAUGGCCUUGCAAAGGGUAUGGUAAUAAGCUGACGGACAUGGUCCUAACCACGCAGCCAAGUCCUAAGUCAACAGAUCUUCUGUUGAUAUGGAUGCAGUUCACAGACUAAAUGUCGGUCGGGGAAGAUGUAUUCUUCUCAUAAGAUAUAGUCGGACCUCUCCUUAAUGGGAGCUAGCGGAUGAAGUGAUGCAACACUGGAGCCGCUGGGAACUAAUUUGUAUGCGAAAGUAUAUUGAUUAGUUUUGGAGUACUCGUGGUCG
In short, it runs like this: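 A randomised library covering all eight P1ex-region intron nucleotides was built with the intron in the knt kanamycin-resistance gene on pET-22b(+) and held in E. coli BL21(DE3). Cells were grown overnight at 37°C or 30°C on LB agar, with or without 25 μg/mL kanamycin, plus 100 μg/mL carbenicillin, 50 μM IPTG and 0.2% rhamnose, and pooled colonies were amplicon-sequenced on an Illumina HiSeq 2500. DiMSum fitness is the error-weighted combination of wild-type-normalised replicate fold changes, kanamycin versus none.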

For the sequence GUAAAGCAAUAUUACGUGGU, the “self-splicing fitness (ln)” value was -3.26 ± 0.12 (30 °C) and -1.11 ± 0.095 (37 °C).
The corresponding values for GUAAAGCAAUAUUACGUGUU are -2.69 ± 0.098 and -0.867 ± 0.11.
Regarding GUACAGCAAUAUUACGAACG, the “self-splicing fitness (ln)” value is, setting by setting: (30 °C) -1.92 ± 0.17; (37 °C) -1.22 ± 0.19.
GUACAGCAAUAUUACGACAA: the “self-splicing fitness (ln)” value (30 °C) is -1.77 ± 0.14 and the “self-splicing fitness (ln)” value (37 °C) was -0.826 ± 0.12.
GUACAGCAAUAUUACGACAU: the “self-splicing fitness (ln)” value is, setting by setting: (30 °C) -0.299 ± 0.012; (37 °C) 0.127 ± 0.032.
The like results for GUACAGCAAUAUUACGACCU were, in that order, -0.715 ± 0.21 and -0.152 ± 0.24.
For GUACAGCAAUAUUACGACUC, the “self-splicing fitness (ln)” value is -0.243 ± 0.06 (30 °C) and 0.473 ± 0.068 (37 °C).
The corresponding values for GUACAGCAAUAUUACGAGUU are -1.7 ± 0.094 and -1.36 ± 0.12.
As to GUACAGCAAUAUUACGAUAC, the “self-splicing fitness (ln)” value is -2.35 ± 0.21 (30 °C) and -2.52 ± 0.22 (37 °C).
With GUACAGCAAUAUUACGAUCA, the “self-splicing fitness (ln)” value runs as follows: (30 °C) -1.83 ± 0.13; (37 °C) -0.392 ± 0.2.
For GUACAGCAAUAUUACGCAUC, the “self-splicing fitness (ln)” value by setting is: (30 °C) -3.74 ± 0.23; (37 °C) -1.36 ± 0.19.
For GUACAGCAAUAUUACGCCAA, for the setting “37 °C”, the “self-splicing fitness (ln)” value is -1.7 ± 0.29.
As to GUACAGCAAUAUUACGCCCG, the “self-splicing fitness (ln)” value was -1.85 ± 0.14 (30 °C) and -1.38 ± 0.2 (37 °C).
On to GUACAGCAAUAUUACGCCGC, for which the “self-splicing fitness (ln)” value was -3.01 ± 0.24 (30 °C) and -2.46 ± 0.45 (37 °C).
Take GUACAGCAAUAUUACGCUGA: the “self-splicing fitness (ln)” value reads like this: (30 °C) -2.47 ± 0.12; (37 °C) -1.33 ± 0.1.
Regarding GUACAGCAAUAUUACGGAAU, the “self-splicing fitness (ln)” value was -2.76 ± 0.11 (30 °C) and -1.46 ± 0.12 (37 °C).
Turning to GUACAGCAAUAUUACGGCAU, the “self-splicing fitness (ln)” value was -0.301 ± 0.081 (30 °C) and -0.278 ± 0.11 (37 °C).
For the sequence GUACAGCAAUAUUACGGCGU, the “self-splicing fitness (ln)” value reads like this: (30 °C) -0.577 ± 0.069; (37 °C) 0.482 ± 0.085.
On to GUACAGCAAUAUUACGGGAA, for which the “self-splicing fitness (ln)” value (30 °C) is -3.59 ± 0.25 and the “self-splicing fitness (ln)” value (37 °C) was -2.24 ± 0.22.
Regarding GUACAGCAAUAUUACGGGAC, the “self-splicing fitness (ln)” value is, setting by setting: (30 °C) -1.7 ± 0.12; (37 °C) -1.22 ± 0.14.
Consider GUACAGCAAUAUUACGGGGG, for which the “self-splicing fitness (ln)” value was -3.36 ± 0.12 (30 °C) and -3.03 ± 0.15 (37 °C).
The corresponding values for GUACAGCAAUAUUACGGUCA are -0.796 ± 0.068 and -0.618 ± 0.082.
Take GUACAGCAAUAUUACGGUCG: the “self-splicing fitness (ln)” value (30 °C) was -1.36 ± 0.058 and the “self-splicing fitness (ln)” value (37 °C) is -0.547 ± 0.084.
Turning to GUACAGCAAUAUUACGUCAC, the “self-splicing fitness (ln)” value (37 °C) is -2.14 ± 0.31.
Turning to GUACAGCAAUAUUACGUCAG, the “self-splicing fitness (ln)” value is, setting by setting: (30 °C) -4.26 ± 0.29; (37 °C) -2.99 ± 0.26.
GUACAGCAAUAUUACGUCGG: the “self-splicing fitness (ln)” value by setting is: (30 °C) -3.45 ± 0.27; (37 °C) -2.4 ± 0.25.
As to GUACAGCAAUAUUACGUCUA, the “self-splicing fitness (ln)” value (30 °C) is -1.11 ± 0.091 and the “self-splicing fitness (ln)” value (37 °C) was -0.268 ± 0.081.
The like results for GUACAGCAAUAUUACGUGAG were, in that order, -1.42 ± 0.074 and -0.954 ± 0.093.
Consider GUACAGCAAUAUUACGUGGA, for which the “self-splicing fitness (ln)” value was -4.34 ± 0.29 (30 °C) and -2.52 ± 0.14 (37 °C).
With GUACAGCAAUAUUACGUGUG, the “self-splicing fitness (ln)” value was -2.12 ± 0.087 (30 °C) and -1.45 ± 0.1 (37 °C).
Consider GUACAGCAAUAUUACGUUGA, for which the “self-splicing fitness (ln)” value runs as follows: (30 °C) -2.77 ± 0.12; (37 °C) -1.59 ± 0.095.
Consider GUAGAGCAAUAUUACGAAAA, for which the “self-splicing fitness (ln)” value (37 °C) was -0.266 ± 0.44.
With GUAGAGCAAUAUUACGAAUU, the “self-splicing fitness (ln)” value is, setting by setting: (30 °C) -2.35 ± 0.21; (37 °C) -2.01 ± 0.35.
For GUAGAGCAAUAUUACGACAG, the “self-splicing fitness (ln)” value was -3.49 ± 0.33 (30 °C) and -1.86 ± 0.3 (37 °C).
Regarding GUAGAGCAAUAUUACGACUC, the “self-splicing fitness (ln)” value is, setting by setting: (30 °C) 0.512 ± 0.23; (37 °C) 0.484 ± 0.38.
The like results for GUAGAGCAAUAUUACGAGCU were, in that order, -2.67 ± 0.22 and -1.66 ± 0.23.
Take GUAGAGCAAUAUUACGCCAU: for the setting “30 °C”, the “self-splicing fitness (ln)” value was -1.22 ± 0.39.
As for GUAGAGCAAUAUUACGCGCU, the “self-splicing fitness (ln)” value reads like this: (30 °C) -2.69 ± 0.32; (37 °C) -2.85 ± 0.32.
Consider GUAGAGCAAUAUUACGCUAG, for which the “self-splicing fitness (ln)” value (30 °C) is -0.754 ± 0.13 and the “self-splicing fitness (ln)” value (37 °C) was found to be 0.329 ± 0.21.
